Target: T cell receptor subunit CD3ζ (human) (human (endogenous in primary CD4+ T cells))

| Substance | fold downregulation of cell surface CD3 relative to ΔNef, transduced primary huCD4+ T cells, flow cytometry (Fig. 5B) [fold] |
| --- | --- |
| SIVmac239 I123L L146F Nef (natural protein) | 2.7 |
| SIVmac239 WT Nef (natural protein) | 15.2 |

— publication PMC12724223
